Positions count from the first letter of the chain named.
B1: HCoV-229E nsp7 (natural protein)
chain: SKLTDLKCTNVVLMGILSNMNIASNSKEWAYCVEMHNKINLCDDPETAQELLLALLAFFLSKHSDFGLGDLVDSYFENDSILQ
B2: MERS-CoV nsp7 (natural protein)
chain: SKLTDLKCTSVVLLSVLQQLHLEANSRAWAFCVKCHNDILAATDPSEAFEKFVSLFATLMTFSGNVDLDALASDIFDTPSVLQ
B3: PEDV nsp7 (natural protein)
chain: SKLTDIKCSNVVLLGCLSSMNVSANSTEWAYCVDLHNKINLCNDPEKAQEMLLALLAFFLSKNSAFGLDDLLESYFNDNSMLQ
B4: FIPV nsp7 (natural protein)
chain: SKLTEMKCTNVVLLGLLSKMHVESNSKEWNYCVGLHNEINLCDDPDAVLEKLLALIAFFLSKHNTCDLSDLIESYFENTTILQ
notes: also called feline CoV nsp7
B5: TGEV nsp7 (natural protein)
chain: B4 chain with D46E, A47I, D70E

How the values were obtained:
[1] = target: SARS-CoV nsp7-8-His6 precursor (SARS-CoV (strain Frankfurt-1)); test: native MS
[2] = target: PEDV nsp7-8-His6 precursor (PEDV (strain CV777))
[3] = target: HCoV-229E nsp7-8-His6 precursor (HCoV-229E); test: native MS
[4] = target: SARS-CoV-2 nsp7-8-His6 precursor (SARS-CoV-2); test: native MS
native MS = target: the molecule itself; test: native MS

Molecule	stoichiometry N (native MS)	also measured
SARS-CoV nsp7-8-His6 precursor (domain or fragment)	–	stoichiometry N [1]: 2
PEDV nsp7-8-His6 precursor (domain or fragment)	–	stoichiometry N [2]: 2
HCoV-229E nsp7-8-His6 precursor (domain or fragment)	–	stoichiometry N [3]: 2
SARS-CoV-2 nsp7-8-His6 precursor (domain or fragment)	–	stoichiometry N [4]: 2
B1	2	–
B2	2	–
B3	2	–
B4	2	–
B5	2	–

— article PMC7929516, “Hallmarks of Alpha- and Betacoronavirus non-structural protein 7+8 complexes” (Science Advances, 2021)
